Results published in article PMC11964938.

Molecular target: purified, recombinant myristoylated HIV-1 MA protein (HIV-1 pNL4-3)

HIV-1 SP2 added to MA on lipid monolayers (peptide)
share of sub-images that contributed to mature-like MA lattice classes on lipid monolayers in the presence of SP2 (7% mature-like and 7% immature-like without SP2; no immature-like classes with SP2): 47%
